Measured values published in article PMC5823669, “Multi-chaperone function modulation and association with cytoskeletal proteins are key features of the function of AIP in the pituitary gland” (Oncotarget, 2018).

Experiments:
[1] = biological target: T1, GST-tagged human AIP p.R304* (human, UniProt O00170 1-303); test: affinity purification with mass spectrometry; GST pull-down: 10 ug of purified GST-AIP bait (WT or variant) against 2 mg total protein of GH3 cell lysate; eluates of four experiments pooled; TMTsixplex labelling, Orbitrap MS; peptide intensities minus the GST control, variants given as fold of the WT experiment (WT = 1); conditions: one partner purified
T1 construct: AIP, human, UniProt O00170; natural nonsense variant c.910C>T, p.R304*: stop codon in place of R304, truncated protein ending at residue 303; The C-terminal limit 303 follows from the printed p.R304*; also called GST-AIP R304*; not shown: GST, N-terminal, kept
T1 sequence (looked up): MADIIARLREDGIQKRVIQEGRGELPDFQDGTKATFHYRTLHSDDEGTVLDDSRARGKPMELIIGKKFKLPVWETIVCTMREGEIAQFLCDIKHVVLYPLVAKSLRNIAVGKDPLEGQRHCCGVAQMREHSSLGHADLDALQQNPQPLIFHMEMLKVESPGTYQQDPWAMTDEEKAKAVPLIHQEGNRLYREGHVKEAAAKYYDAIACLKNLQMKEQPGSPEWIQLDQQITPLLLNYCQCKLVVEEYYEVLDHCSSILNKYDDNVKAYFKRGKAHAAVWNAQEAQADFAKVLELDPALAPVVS

[2] = biological target: T2, GST-tagged human AIP p.A299V (human, UniProt O00170 1-330, p.A299V); test: as above; conditions: one partner purified
T2 construct: AIP, human, UniProt O00170; also called GST-AIP A299V; not shown: GST, N-terminal, kept
T2 sequence (looked up): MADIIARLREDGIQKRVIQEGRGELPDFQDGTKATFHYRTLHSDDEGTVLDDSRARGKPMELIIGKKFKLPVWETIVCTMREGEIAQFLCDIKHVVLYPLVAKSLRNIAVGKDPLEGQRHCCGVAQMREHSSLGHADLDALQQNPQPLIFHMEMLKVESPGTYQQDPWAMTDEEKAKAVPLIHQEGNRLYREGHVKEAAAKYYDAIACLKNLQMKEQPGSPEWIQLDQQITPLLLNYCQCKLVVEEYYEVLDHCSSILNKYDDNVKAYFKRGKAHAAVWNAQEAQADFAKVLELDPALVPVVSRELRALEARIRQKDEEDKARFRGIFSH

B1: TBB5_RAT Tubulin beta-5 chain (Tubb5) (natural protein, R. norvegicus (endogenous in GH3), UniProt P69897 1-444, looked up)
chain: MREIVHIQAGQCGNQIGAKFWEVISDEHGIDPTGTYHGDSDLQLDRISVYYNEATGGKYVPRAILVDLEPGTMDSVRSGPFGQIFRPDNFVFGQSGAGNNWAKGHYTEGAELVDSVLDVVRKEAESCDCLQGFQLTHSLGGGTGSGMGTLLISKIREEYPDRIMNTFSVVPSPKVSDTVVEPYNATLSVHQLVENTDETYCIDNEALYDICFRTLKLTTPTYGDLNHLVSATMSGVTTCLRFPGQLNADLRKLAVNMVPFPRLHFFMPGFAPLTSRGSQQYRALTVPELTQQVFDAKNMMAACDPRHGRYLTVAAVFRGRMSMKEVDEQMLNVQNKNSSYFVEWIPNNVKTAVCDIPPRGLKMAVTFIGNSTAIQELFKRISEQFTAMFRRKAFLHWYTGEGMDEMEFTEAESNMNDLVSEYQQYQDATAEEEEDFGEEAEEEA
notes: Tubulin beta-5 chain, rat, UniProt P69897; also called tubulin beta chain; source: endogenous, GH3 cell lysate
- normalized intensity value (fold of the WT AIP pull-down) [1]: 0.2 fold of WT

B2: NDKA_RAT Nucleoside diphosphate kinase A (Nme1) (natural protein, R. norvegicus (endogenous in GH3), UniProt Q05982 1-152, looked up)
chain: MANSERTFIAIKPDGVQRGLVGEIIKRFEQKGFRLVGLKFIQASEDLLKEHYIDLKDRPFFSGLVKYMHSGPVVAMVWEGLNVVKTGRVMLGETNPADSKPGTIRGDFCIQVGRNIIHGSDSVESAEKEISLWFQPEELVDYKSCAQNWIYE
notes: Nucleoside diphosphate kinase A, rat, UniProt Q05982; also called NME/NM23 nucleoside diphosphate kinase 1; source: endogenous, GH3 cell lysate
- normalized intensity value (fold of the WT AIP pull-down) [2]: 0.2 fold of WT

B3: TBB2A_RAT Tubulin beta-2A chain (Tubb2a) (natural protein, R. norvegicus (endogenous in GH3), UniProt P85108 1-445, looked up)
chain: MREIVHIQAGQCGNQIGAKFWEVISDEHGIDPTGSYHGDSDLQLERINVYYNEAAGNKYVPRAILVDLEPGTMDSVRSGPFGQIFRPDNFVFGQSGAGNNWAKGHYTEGAELVDSVLDVVRKESESCDCLQGFQLTHSLGGGTGSGMGTLLISKIREEYPDRIMNTFSVMPSPKVSDTVVEPYNATLSVHQLVENTDETYSIDNEALYDICFRTLKLTTPTYGDLNHLVSATMSGVTTCLRFPGQLNADLRKLAVNMVPFPRLHFFMPGFAPLTSRGSQQYRALTVPELTQQMFDSKNMMAACDPRHGRYLTVAAIFRGRMSMKEVDEQMLNVQNKNSSYFVEWIPNNVKTAVCDIPPRGLKMSATFIGNSTAIQELFKRISEQFTAMFRRKAFLHWYTGEGMDEMEFTEAESNMNDLVSEYQQYQDATADEQGEFEEEEGEDEA
notes: Tubulin beta-2A chain, rat, UniProt P85108; source: endogenous, GH3 cell lysate
- normalized intensity value (fold of the WT AIP pull-down) [1]: 0.3 fold of WT
